From patent publication US20240425607A1, “IL-18BP ANTAGONIST ANTIBODIES AND THEIR USE IN MONOTHERAPY AND COMBINATION THERAPY IN THE TREATMENT OF CANCER” (Compugen Ltd., priority 2023, published 2024)

Key:
[1] = tested on: MC38ova tumor-bearing mice; assay: Peripheral effects in MC38ova tumor-bearing mice: anti-mIL18BP vs engineered mIL-18; type: in vivo; details: mouse, in vivo
Procedure: Nine days pre-inoculum, vials of MC38ova^dim cells were thawed into RPMI media containing 10% FBS, 1% Glutamax, 1% Sodium pyruvate, 1% HEPES, 1% NEAA, 0.01% 2-mercaptoethanol, 1% Penicillin-Streptomycin. Following centrifugation at 300×g for 8 min, cell pellet was resuspended, counted and seeded in a T175 flask. On days −7, −5 and −2, the cells were detached and re-seeded at 6-8*10^6 cells/T175 flask. On the day of inoculum, the cells were detached, centrifuged at 300×g for 10 min, filtered through […] cell strainer and resuspended in RPMI.
Experiments were performed in C57Bl/6 (female, 6-8 wk, Envigo). Mice were anesthetized with 10% Ketamine and 10% Xylazine mixture injected intraperitoneal. Next, mice were inoculated with MC38ova cells (1.2×10^6) subcutaneously to the right flank in 50 μl/mice.
At tumor volume of −120 mm^3 (day 9), mice were randomly assigned into treatment groups. Mice were treated with Synagis mouse IgG1, k isotype control 15 mg/kg (IP), anti-mIL18 bp 837 mIgG1 15 mg/kg (IP), PBS (SC), or engineered IL-18 (SC) 0.32 mg/kg. Treatments were injected twice a week for a total of 6 treatments. […] Mice were weighed every week. Mice were bled before the 4th treatment, 4 hours after the 4th treatment, and 24 hours after the 4th treatment. Serum was analyzed for presence of IFNg, TNFα, MCP1, IL6 by Cytometric Bead Array (CBA) Mouse Inflammation Kit (BD Cat. No. 552364). Spleens were harvested from mice 24 hours after the 4th treatment and weighed. For IL15 experiments, mice were treated with a single dose of 0.5 μg, 1.5 μg of IL15, or with a mix of 0.5 μg IL15 and 2.33 μg IL15R.
Spleens were crushed into 40 μm filters and red blood cells were lysed. Single-cell suspensions were seeded into a 96-well V-bottomed plate. Cells were labeled for viability and dead cells were excluded using the Fixable Viability Stain 450 (BD Bioscience Cat #562247). To block Fcγ receptors, cells were incubated with 10 μg/mL of Purified Rat Anti-Mouse CD16/CD32 (Mouse BD Fc Block™, BD Bioscience Cat #553142) in cold 1×PBS buffer for 10 minutes. Various immune populations were stained with anti-mouse antibodies (Table 17). After washing (1% BSA, 0.1% sodium azide, in PBS), cells were acquired on FACS Fortessa cytometer (BD Bioscience). Analysis was done using FlowJo.

IL18-BP = molecular target: T1, IL18-BP (Mus musculus, UniProt Q9Z0M9); details: cited from earlier work
T1 sequence (Q9Z0M9 29-193): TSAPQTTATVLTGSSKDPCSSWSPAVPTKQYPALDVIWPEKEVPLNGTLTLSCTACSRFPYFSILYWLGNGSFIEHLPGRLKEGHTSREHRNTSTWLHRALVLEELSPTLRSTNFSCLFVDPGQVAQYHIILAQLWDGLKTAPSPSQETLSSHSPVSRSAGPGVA

B1: engineered mIL-18: Engineered IL-18 of US 20190070262A1, SEQ ID NO: 1920 (protein)
chain: HFGRLHCTTAVIRNINDQVLFVDKRQPVFEDMTDIDQSASEPQTRLIIYAYGDSRARGKAVTLSVKDSKMSTLSCKNKIISFEEMDPPENIDDIQSDLIFFQKRVPGHNKMEFESSLYEGHFLACQKEDDAFKLILKKKDENGDKSVMFTLTNLHQSHHHHHH
- Activation state of splenic lymphocytes vs control [1]: significantly more CD69+CD4+ T-cells, CD69+CD8 T-cells, CD69+B Cells, CD107+NK cells, and CD69+CD107+ NKT cells
- Serum levels of IL18, 4 hours after the 4th treatment [1]: very high serum levels of IL18
- Serum levels of IL18, 24 hours after the 4th treatment [1]: returned to baseline
- Spleen enlargement vs control, average [1]: 4.9 folds
- Splenic CD45+ immune cells, CD3+ T cells and CD19+ B cells vs control [1]: larger number of CD45+ immune cells, as well as CD3+ T cells and CD19+B cells
- Binding to IL18-BP (IL18-BP): not to bind IL18-BP
